The target in assay [1] is ephrinB2-Fc chimaera (human ephrin-B2 residues 1-229, IEGRMD linker, human IgG1 residues 100-330) (human) (UniProt P52799). The experiment in a line: SDS-PAGE without reduction and boiling.
Assay [2] has as its target ephrinB3-Fc chimaera (human ephrin-B3 residues 28-224, IEGRMD linker, human IgG1 residues 100-330) (human) (UniProt Q15768). In words: SDS-PAGE without reduction and boiling.
Assay [3] deals with soluble NiVMY G ectodomain used for structural determination (residues 72-602, His tag) (Nipah virus Malaysia (NiVMY)) (UniProt Q9IH62). The experiment in a line: negative-stain electron microscopy; soluble NiVMY G ectodomain alone.

Sequence of ephrinB3-Fc chimaera (human ephrin-B3 residues 28-224, IEGRMD linker, human IgG1 residues 100-330) (Q15768 28-224): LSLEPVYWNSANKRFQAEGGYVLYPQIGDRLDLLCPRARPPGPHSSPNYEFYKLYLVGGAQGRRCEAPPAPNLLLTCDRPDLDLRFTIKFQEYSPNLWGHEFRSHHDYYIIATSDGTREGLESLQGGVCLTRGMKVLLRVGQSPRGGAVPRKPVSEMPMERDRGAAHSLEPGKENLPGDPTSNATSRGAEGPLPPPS
Sequence of soluble NiVMY G ectodomain used for structural determination (residues 72-602, His tag) (Q9IH62 72-602): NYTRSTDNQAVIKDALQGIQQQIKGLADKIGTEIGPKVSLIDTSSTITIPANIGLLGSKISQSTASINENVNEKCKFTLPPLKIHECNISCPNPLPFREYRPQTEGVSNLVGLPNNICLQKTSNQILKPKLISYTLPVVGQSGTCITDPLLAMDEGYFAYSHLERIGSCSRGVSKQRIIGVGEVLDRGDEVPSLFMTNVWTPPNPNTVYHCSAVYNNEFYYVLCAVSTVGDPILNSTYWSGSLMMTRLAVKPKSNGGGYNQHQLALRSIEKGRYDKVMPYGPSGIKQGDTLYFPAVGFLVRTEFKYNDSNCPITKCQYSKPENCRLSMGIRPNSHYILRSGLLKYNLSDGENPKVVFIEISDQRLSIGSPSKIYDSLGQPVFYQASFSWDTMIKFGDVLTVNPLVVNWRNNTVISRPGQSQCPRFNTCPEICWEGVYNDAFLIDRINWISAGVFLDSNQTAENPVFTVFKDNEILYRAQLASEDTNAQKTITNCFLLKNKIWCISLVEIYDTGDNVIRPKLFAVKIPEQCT
Sequence of ephrinB2-Fc chimaera (human ephrin-B2 residues 1-229, IEGRMD linker, human IgG1 residues 100-330) (P52799 28-229): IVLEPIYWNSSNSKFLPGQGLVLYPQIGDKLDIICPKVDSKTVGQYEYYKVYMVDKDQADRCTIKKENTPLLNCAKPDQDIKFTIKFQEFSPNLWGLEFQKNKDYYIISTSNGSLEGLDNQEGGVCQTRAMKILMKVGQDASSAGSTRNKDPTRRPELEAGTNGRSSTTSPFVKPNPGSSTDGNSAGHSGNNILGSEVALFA

For orientation: stoichiometry N means the number of molecules, sites or subunits per partner or assembly. On to “ephrinB2-Fc chimaera (human ephrin-B2 residues 1-229, IEGRMD linker, human IgG1 residues 100-330) (from UniProt P52799 28-229) (Fc fusion)”, for which the stoichiometry N in assay [1] is 2.

In assay [2], “ephrinB3-Fc chimaera (human ephrin-B3 residues 28-224, IEGRMD linker, human IgG1 residues 100-330) (from UniProt Q15768 28-224) (Fc fusion)” returned a stoichiometry N of 2.

“soluble NiVMY G ectodomain used for structural determination (residues 72-602, His tag) (from UniProt Q9IH62 72-602) (domain or fragment)”: the stoichiometry N in assay [3] turned out to be 4.

The values are drawn from publication PMC11109247.
